Experimental findings from publication PMC6148051, “p53 cooperates with SIRT6 to regulate cardiolipin de novo biosynthesis” (Cell Death & Disease, 2018) are described below.

This experiment addresses T1, His-tagged p53 protein (UniProt P04637 1-393).
T1 construct: tumor suppressor p53, cloned into pET28b+; also called His-p53; source: bacteria (pET28b+), purified (Ni(II)-Sepharose)
Nature of the experiment: pull-down; GST or GST fusion proteins on glutathione-Sepharose 4B beads incubated with purified His-tagged proteins in TEN buffer (10 mM Tris-HCl, pH 8.0, 1 mM EDTA, 100 mM NaCl), 4 h, 4 °C; blot with anti-His or anti-GST, Coomassie staining. Conditions: both partners purified.

T1 sequence (P04637 whole entry): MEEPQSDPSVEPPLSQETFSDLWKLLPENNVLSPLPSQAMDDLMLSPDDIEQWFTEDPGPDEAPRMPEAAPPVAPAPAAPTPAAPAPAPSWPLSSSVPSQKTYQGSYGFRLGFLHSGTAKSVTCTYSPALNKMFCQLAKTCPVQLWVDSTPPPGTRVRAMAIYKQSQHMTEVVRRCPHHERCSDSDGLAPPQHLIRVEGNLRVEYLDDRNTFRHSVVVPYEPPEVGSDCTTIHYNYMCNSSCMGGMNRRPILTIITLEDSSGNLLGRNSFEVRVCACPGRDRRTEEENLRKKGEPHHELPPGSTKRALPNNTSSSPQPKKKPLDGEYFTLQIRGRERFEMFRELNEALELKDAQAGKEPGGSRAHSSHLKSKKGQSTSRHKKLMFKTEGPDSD

B1: GST-SIRT6 core domain, 35–276 aa (domain or fragment, UniProt Q8N6T7 35-276, looked up)
chain: WELARLVWQSSSVVFHTGAGISTASGIPDFRGPHGVWTMEERGLAPKFDTTFESARPTQTHMALVQLERVGLLRFLVSQNVDGLHVRSGFPRDKLAELHGNMFVEECAKCKTQYVRDTVVGTMGLKATGRLCTVAKARGLRACRGELRDTILDWEDSLPDRDLALADEASRNADLSITLGTSLQIRPSGNLPLATKRRGGRLVIVNLQPTKHDRHADLRIHGYVDEVMTRLMKHLGLEIPAW
notes: source: bacteria, purified (glutathione-Sepharose 4B)
With B1, the binding result is “binds”.
